# Measurements: a protein production outcome set (Wang et al. 2014)
# Assay: label from the status in PepcDB records
row,Sequence,protein production
1,MDIELPGFDIERELGEGAMATVYLATQRSLQRKVALKVMAAALAADPSFAERFLREGRTLARLSHPNTVTIHDIGNVGSCYYMAMEYLPNGTLKERIQQGLDPEQGLAYVRQVAAALGYAHSQGLVHRDVKPANILFRADGTAVLSDFGIAKSIEDNTQFTQVGFAVGTPSYMSPEQARGQEIDGRADLYALGVVLYEILTGKLPYNGKDSLSTALAHLTEPLPELPIEQGRYQDILRQLLAKDPAERFPTAGALIAALDRLAPSALEATQIRPLATPQGSPRASNPPPAEPAPLPPADLGGLQPVSIQLPPVTPSAGGATPPPPPPSQAAKPPSPPPPPLPPAKPRAGGSRTPLIAAAAAAVLLAIGGGAWWLLGSGDAPSAADPAPLGQTPADKPQQQTPVADAEQDGGERPLLMPGKKTLFQRVLTKPGAAISAEAGGPPRAGAVPAFSVLYVYARKQVGGSPWLRVGASSNGEGDGWLPASAVSDWKQSLVLKFTERSGRAPVMFLNSAEQVERLLGDTRAARDTLTQAVDHKGDPQVVAVEPNDRAIPQDQFYLLPIFDSKESFDADGQPAQLLEVASIDPGGSAAAPQAPGQAGQGGASGAASDTFRTGIVLVVDTSVSMQPYIDRVREVIDGLQRQIGERGDLDKVSFGLVGFRNNTDKTPGLEYVSKTLVPLQPGNDAQRFAELSSQVRATDVSSHSFNEDAFAGIMQAVDEMDWSPYAGRVVLLVTDAGALRKNDPLGRTQMNEAEVRQAALRKGVKIYALHLRTPAGKNNHGYAEQQYRSLTADANPKIADLYIPVAGGEVNAFGNTVKEIGTVFADLVHDAGNRKPQAPRFDAAPSVASKSAAIGYAMQMEFLGRRDPVRAPQVVTAWTADRDLTNPALPAFQVCVLLSKLQLNELQQSLKLIVDAAKRTQTSPKDFFQEIASASAYMSRDPAQLVKGSNLAQSGVLGEYLEGLPYRSKSLNMTQDLWLSLSVAEQQDFIDELESKIRLYETFHNDVANWVRFGDADAGDALYRVPLSTLP,failed
2,MDIFLVIGIITGLLAVVVGMIVKGANVAVLLNPAAAIIIIVGTSAAVMNSFPKNEFTNIPKVFKSLMRGKSKEDPVEIINQIVDMAQETRKNGLLSLEGKIHSIDNEFLKTGLEMVVDGVDPQHIAEVLEMEIESTEERHRGGALIFTTAGGAAPTLGVLGAVVGLIGALGNLNDTEKLGHMIAGAFVATLYGIFFGYVICHPFASRLKRKSLEEINVMRIITEGILDIQSGNNPKSIEKKLIGTLSPKQRQSIQSKGE,failed
3,MDIFLVVLVLLTIIAISNIVNRFIPFIPVPLIQVALGILAASFPQGLHFELNTELFFVLFIAPLLFNDGKRTPRAELWNLRAPILLLALGLVFATVIVGGYTIHWMIPAIPLAAAFGLAAILSPTDVVAVSALSGRVKMPKGILRLLEGEGLMNDASGLVAFKFAIAAAVTGAFSLAQAAVSFVFISLGGLLCGVVISFLIIRFRLFLRRLGMQDVTMHMLIQILTPFVIYLAAEEIGVSGILAVVAGGITHAVEQDRLESTMIKLQIVSSSTWNIILFILNGLVFVILGTQIPDVISVIFNDTAISNMKVIGYILVITFTLMLLRFLWVLFFWNGKWFFNKDQNIYKPGLRSTLLISISGVRGAVTLAGSFSIPYFLEDGTPFPERNLILFLAAGVILCTLVIATVVLPILTEKEEEDEERNKKLLTARRKLIKTALQTIKEDMNETNKTASLAVIAEYNEKMKNLRFQQYTSSNRIKKHERKVRAQGVKAEQEALMKMLERGDIPEETANVLQERFNELEILYANPFKVGLSKTRLKRLMYWIFFGEHKKPEMSILNEAGLIRATRVKTAKAAIEYLEKHKTDEHKEVFLSVITFYKQLIFRLEHSHHELKSSAHFENQKLEVKLKAVQAIRNEIQTLFEEREISRDISHELRQYINDVEAAMLEGGE,failed
